Measurements taken from publication PMC6451097, “YB-1, an abundant core mRNA-binding protein, has the capacity to form an RNA nucleoprotein filament: a structural analysis”.

Key:
[1] = target: YB-1 CSD (Homo sapiens, UniProt P67809 52-129); experiment: NMR HSQC; 1:1; EMSA: 20 mM Hepes pH 7.5, 40 mM KCl, room temp, 5 min (SSB: 20 mM Tris-HCl pH 7.6, 300 mM KCl, 37 C, 15 min); NMR: 100 uM protein, 1:1 oligo, 298 K (RNA 298 and 303 K), NMR buffer not in material; conditions: protein: recombinant
[2] = target: YB-1C (Homo sapiens, UniProt P67809 1-180); experiment: NMR HSQC; 1:1; monomer; EMSA: 20 mM Hepes pH 7.5, 40 mM KCl, room temp, 5 min (SSB: 20 mM Tris-HCl pH 7.6, 300 mM KCl, 37 C, 15 min); NMR: 100 uM protein, 1:1 oligo, 298 K (RNA 298 and 303 K), NMR buffer not in material; conditions: protein: recombinant; tags: His-tag (pET22b); untagged version also used
YB-1C, sequence (P67809 1-180): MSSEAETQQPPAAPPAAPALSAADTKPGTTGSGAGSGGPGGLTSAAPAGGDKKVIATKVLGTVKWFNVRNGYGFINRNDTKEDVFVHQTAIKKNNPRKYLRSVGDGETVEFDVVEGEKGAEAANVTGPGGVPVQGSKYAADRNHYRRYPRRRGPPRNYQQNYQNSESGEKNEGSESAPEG

YB-1 CSD, sequence (P67809 52-129): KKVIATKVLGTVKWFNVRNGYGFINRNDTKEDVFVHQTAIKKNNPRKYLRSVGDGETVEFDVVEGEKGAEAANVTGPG

B1: dC10 (ssDNA)
DNA: CCCCCCCCCC
[1]
  binding result: binds
[2]
  binding result: binds
